Assay results from the supplement of paper PMC7877785.
± gives the uncertainty stated by the source.

Experiment: self-splicing fitness, log relative to wild type (ln ratio); higher = more splicing; Tetrahymena group I intron in knt gene, E. coli kanamycin selection, DiMSum; sequences stand for … in CUCUCU…GGAGGGAAAAGUUAUCAGGCAUGCACCUGGUAGCUAGUCUUUAAACCAAUAGAUUGCAUCGGUUUAAAAGGCAAGACCGUCAAAUUGCGGGAAAGGGGUCAACAGCCGUUCAGUACCAAGUCUCAGGGGAAACUUUGAGAUGGCCUUGCAAAGGGUAUGGUAAUAAGCUGACGGACAUGGUCCUAACCACGCAGCCAAGUCCUAAGUCAACAGAUCUUCUGUUGAUAUGGAUGCAGUUCACAGACUAAAUGUCGGUCGGGGAAGAUGUAUUCUUCUCAUAAGAUAUAGUCGGACCUCUCCUUAAUGGGAGCUAGCGGAUGAAGUGAUGCAACACUGGAGCCGCUGGGAACUAAUUUGUAUGCGAAAGUAUAUUGAUUAGUUUUGGAGUACUCGUGGUCG
In short: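 Pooled colonies went to amplicon sequencing on an Illumina HiSeq 2500 after six replicate transformations. The plates were LB agar with 100 μg/mL carbenicillin, 50 μM IPTG and 0.2% rhamnose, with or without 25 μg/mL kanamycin, incubated overnight at 37°C or 30°C. The E. coli BL21(DE3) library had all eight P1ex-region intron nucleotides randomised, the intron placed in the knt kanamycin-resistance gene on pET-22b(+). DiMSum fitness is the error-weighted combination of replicate fold changes, kanamycin against none, normalised to wild type.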

For CGCAAGCAAUAUUACGUAAU, which “self-splicing fitness (ln)” value (30 °C) is on record?
Its value is -3.89 ± 0.2.

What about the “self-splicing fitness (ln)” value (37 °C) of the same sequence?
The value was -2.14 ± 0.17.

For CGCAAGCAAUAUUACGUGAG, which “self-splicing fitness (ln)” value (30 °C) is on record?
The value was -2.69 ± 0.13.

What about the “self-splicing fitness (ln)” value (37 °C) of the same sequence?
The value was -2.15 ± 0.13.

For CGCAAGCAAUAUUACGUGCA, which “self-splicing fitness (ln)” value (30 °C) is on record?
Its value is -0.273 ± 0.064.

And the “self-splicing fitness (ln)” value (37 °C)?
The value was -0.135 ± 0.075.

With CGCAAGCAAUAUUACGUGUU as the sequence, how does the “self-splicing fitness (ln)” value (30 °C) read?
The value was -3.48 ± 0.11.

And the “self-splicing fitness (ln)” value (37 °C)?
The value was -2.9 ± 0.14.

For CGCAAGCAAUAUUACGUUUC, which “self-splicing fitness (ln)” value (30 °C) is on record?
Its value is -2.92 ± 0.16.

What about the “self-splicing fitness (ln)” value (37 °C) of the same sequence?
Its value is -2.21 ± 0.23.

Which results are given for CGCCAGCAAUAUUACGAAAU?
self-splicing fitness (ln) (30 °C): -4.66 ± 0.37; self-splicing fitness (ln) (37 °C): -2.69 ± 0.24

Which “self-splicing fitness (ln)” value (30 °C) does the source give for CGCCAGCAAUAUUACGAACC here?
Its value is -2.23 ± 0.22.

And the “self-splicing fitness (ln)” value (37 °C)?
The value was -2.02 ± 0.43.

Which “self-splicing fitness (ln)” value (30 °C) does the source give for CGCCAGCAAUAUUACGAAGA here?
Its value is -2.64 ± 0.36.

And the “self-splicing fitness (ln)” value (37 °C)?
The value was -2.2 ± 0.24.

Which “self-splicing fitness (ln)” value (30 °C) does the source give for CGCCAGCAAUAUUACGACCU here?
The value was -3.15 ± 0.36.

And the “self-splicing fitness (ln)” value (37 °C)?
The value was -2.15 ± 0.28.

Which “self-splicing fitness (ln)” value (30 °C) does the source give for CGCCAGCAAUAUUACGAGCU here?
The value was -3.06 ± 0.097.

What about the “self-splicing fitness (ln)” value (37 °C) of the same sequence?
Its value is -1.59 ± 0.094.

Which “self-splicing fitness (ln)” value (30 °C) does the source give for CGCCAGCAAUAUUACGAUGC here?
The value was -3.51 ± 0.38.

What about the “self-splicing fitness (ln)” value (37 °C) of the same sequence?
Its value is -1.75 ± 0.2.

For CGCCAGCAAUAUUACGAUGU, which “self-splicing fitness (ln)” value (30 °C) is on record?
Its value is -2.9 ± 0.12.

And the “self-splicing fitness (ln)” value (37 °C)?
Its value is -1.25 ± 0.1.

With CGCCAGCAAUAUUACGCCGA as the sequence, how does the “self-splicing fitness (ln)” value (30 °C) read?
Its value is -2.87 ± 0.23.

And the “self-splicing fitness (ln)” value (37 °C)?
Its value is -1.65 ± 0.19.

With CGCCAGCAAUAUUACGCGAU as the sequence, how does the “self-splicing fitness (ln)” value (30 °C) read?
The value was -3.87 ± 0.2.

And the “self-splicing fitness (ln)” value (37 °C)?
The value was -2.22 ± 0.17.

What does the source list for CGCCAGCAAUAUUACGCGGA?
self-splicing fitness (ln) (30 °C): -2.91 ± 0.2; self-splicing fitness (ln) (37 °C): -1.99 ± 0.16

For CGCCAGCAAUAUUACGCGGC, which “self-splicing fitness (ln)” value (30 °C) is on record?
The value was -4.11 ± 0.47.

And the “self-splicing fitness (ln)” value (37 °C)?
Its value is -3.03 ± 0.27.

With CGCCAGCAAUAUUACGCUGU as the sequence, how does the “self-splicing fitness (ln)” value (30 °C) read?
The value was -3.38 ± 0.29.

What about the “self-splicing fitness (ln)” value (37 °C) of the same sequence?
The value was -2.69 ± 0.39.

For CGCCAGCAAUAUUACGCUUG, which “self-splicing fitness (ln)” value (30 °C) is on record?
The value was -2.95 ± 0.13.

What about the “self-splicing fitness (ln)” value (37 °C) of the same sequence?
The value was -1.88 ± 0.15.

What does the source list for CGCCAGCAAUAUUACGGAGC?
self-splicing fitness (ln) (30 °C): -3.06 ± 0.24; self-splicing fitness (ln) (37 °C): -2.82 ± 0.48

For CGCCAGCAAUAUUACGGCAU, which “self-splicing fitness (ln)” value (30 °C) is on record?
The value was -1.25 ± 0.081.

What about the “self-splicing fitness (ln)” value (37 °C) of the same sequence?
Its value is -0.458 ± 0.088.

Which results are given for CGCCAGCAAUAUUACGGCCU?
self-splicing fitness (ln) (30 °C): -0.959 ± 0.061; self-splicing fitness (ln) (37 °C): 0.409 ± 0.072

Which results are given for CGCCAGCAAUAUUACGGCGC?
self-splicing fitness (ln) (30 °C): -3 ± 0.17; self-splicing fitness (ln) (37 °C): -2.23 ± 0.22

For CGCCAGCAAUAUUACGGCUC, which “self-splicing fitness (ln)” value (30 °C) is on record?
Its value is -0.72 ± 0.22.

And the “self-splicing fitness (ln)” value (37 °C)?
Its value is -0.0823 ± 0.23.

What does the source list for CGCCAGCAAUAUUACGGUCU?
self-splicing fitness (ln) (30 °C): -0.989 ± 0.061; self-splicing fitness (ln) (37 °C): -0.324 ± 0.076

For CGCCAGCAAUAUUACGUACC, which “self-splicing fitness (ln)” value (30 °C) is on record?
The value was -3.78 ± 0.29.

What about the “self-splicing fitness (ln)” value (37 °C) of the same sequence?
Its value is -2.74 ± 0.3.

Which “self-splicing fitness (ln)” value (30 °C) does the source give for CGCCAGCAAUAUUACGUCAG here?
The value was -0.444 ± 0.073.

And the “self-splicing fitness (ln)” value (37 °C)?
Its value is 0.203 ± 0.095.

For CGCCAGCAAUAUUACGUCUA, which “self-splicing fitness (ln)” value (37 °C) is on record?
The value was -2.52 ± 0.3.

What does the source list for CGCCAGCAAUAUUACGUGGA?
self-splicing fitness (ln) (30 °C): -3.6 ± 0.2; self-splicing fitness (ln) (37 °C): -2 ± 0.15

Which results are given for CGCCAGCAAUAUUACGUGGC?
self-splicing fitness (ln) (30 °C): -3.72 ± 0.2; self-splicing fitness (ln) (37 °C): -2.5 ± 0.2

Which “self-splicing fitness (ln)” value (37 °C) does the source give for CGCGAGCAAUAUUACGAAAU here?
The value was -2.57 ± 0.27.

For CGCGAGCAAUAUUACGAAGU, which “self-splicing fitness (ln)” value (30 °C) is on record?
Its value is -3.36 ± 0.21.

What about the “self-splicing fitness (ln)” value (37 °C) of the same sequence?
The value was -2.57 ± 0.31.

Which “self-splicing fitness (ln)” value (30 °C) does the source give for CGCGAGCAAUAUUACGACGU here?
The value was -2.39 ± 0.33.

And the “self-splicing fitness (ln)” value (37 °C)?
The value was -1.08 ± 0.21.

Which “self-splicing fitness (ln)” value (30 °C) does the source give for CGCGAGCAAUAUUACGAGGG here?
The value was -3.3 ± 0.22.

And the “self-splicing fitness (ln)” value (37 °C)?
The value was -2.71 ± 0.22.

Which “self-splicing fitness (ln)” value (30 °C) does the source give for CGCGAGCAAUAUUACGAUCG here?
The value was -2.08 ± 0.11.

What about the “self-splicing fitness (ln)” value (37 °C) of the same sequence?
Its value is -2.66 ± 0.29.

With CGCGAGCAAUAUUACGCACG as the sequence, how does the “self-splicing fitness (ln)” value (37 °C) read?
Its value is -2.14 ± 0.46.

With CGCGAGCAAUAUUACGCUAC as the sequence, how does the “self-splicing fitness (ln)” value (37 °C) read?
Its value is -2.08 ± 0.25.

With CGCGAGCAAUAUUACGGCCA as the sequence, how does the “self-splicing fitness (ln)” value (37 °C) read?
The value was -1.68 ± 0.39.

With CGCGAGCAAUAUUACGGGCC as the sequence, how does the “self-splicing fitness (ln)” value (30 °C) read?
The value was -2.71 ± 0.27.

What does the source list for CGCGAGCAAUAUUACGGGCG?
self-splicing fitness (ln) (30 °C): -3.25 ± 0.24; self-splicing fitness (ln) (37 °C): -3.4 ± 0.42

What does the source list for CGCGAGCAAUAUUACGGGUG?
self-splicing fitness (ln) (30 °C): -2.14 ± 0.077; self-splicing fitness (ln) (37 °C): -1.68 ± 0.1

What does the source list for CGCGAGCAAUAUUACGUAGU?
self-splicing fitness (ln) (30 °C): -3.92 ± 0.18; self-splicing fitness (ln) (37 °C): -2.14 ± 0.16

With CGCGAGCAAUAUUACGUCGC as the sequence, how does the “self-splicing fitness (ln)” value (30 °C) read?
Its value is -2.79 ± 0.24.

And the “self-splicing fitness (ln)” value (37 °C)?
Its value is -3.48 ± 0.37.

Which results are given for CGCGAGCAAUAUUACGUCGG?
self-splicing fitness (ln) (30 °C): -1.99 ± 0.086; self-splicing fitness (ln) (37 °C): -1.16 ± 0.093

Which results are given for CGCGAGCAAUAUUACGUUAC?
self-splicing fitness (ln) (30 °C): -4.07 ± 0.28; self-splicing fitness (ln) (37 °C): -1.78 ± 0.33

With CGCGAGCAAUAUUACGUUAU as the sequence, how does the “self-splicing fitness (ln)” value (30 °C) read?
The value was -3.91 ± 0.21.

What about the “self-splicing fitness (ln)” value (37 °C) of the same sequence?
The value was -3.49 ± 0.3.

For CGCUAGCAAUAUUACGACCG, which “self-splicing fitness (ln)” value (30 °C) is on record?
Its value is -1.12 ± 0.11.

What about the “self-splicing fitness (ln)” value (37 °C) of the same sequence?
Its value is -0.347 ± 0.15.

What does the source list for CGCUAGCAAUAUUACGAGGG?
self-splicing fitness (ln) (30 °C): -2.59 ± 0.11; self-splicing fitness (ln) (37 °C): -2.44 ± 0.17

With CGCUAGCAAUAUUACGAUGG as the sequence, how does the “self-splicing fitness (ln)” value (30 °C) read?
Its value is -0.85 ± 0.075.

And the “self-splicing fitness (ln)” value (37 °C)?
The value was 0.251 ± 0.083.

For CGCUAGCAAUAUUACGCAGU, which “self-splicing fitness (ln)” value (30 °C) is on record?
The value was -3.63 ± 0.2.

And the “self-splicing fitness (ln)” value (37 °C)?
The value was -2.35 ± 0.2.

Which “self-splicing fitness (ln)” value (30 °C) does the source give for CGCUAGCAAUAUUACGCAUC here?
Its value is -3.88 ± 0.36.

What about the “self-splicing fitness (ln)” value (37 °C) of the same sequence?
The value was -2.66 ± 0.29.
